Results published in article PMC7440919, “Cryo-EM structure of the lysosomal chloride-proton exchanger CLC-7 in complex with OSTM1” (eLife, 2020).

B1: human osteopetrosis-associated transmembrane protein 1 (OSTM1) (natural protein)
chain: ALPFGSSPHRVFHDLLSEQQLLEVEDLSLSLLQGGGLGPLSLPPDLPDLDPECRELLLDFANSSAELTGCLVRSARPVRLCQTCYPLFQQVVSKMDNISRAAGNTSESQSCARSLLMADRMQIVVILSEFFNTTWQEANCANCLTNNSEELSNSTVYFLNLFNHTLTCFEHNLQGNAHSLLQTKNYSEVCKNCREAYKTLSSLYSEMQKMNELENKAEPGTHLCIDVEDAMNITRKLWSRTFNCSVPCSDTVPVIAVSVFILFLPVVFYLSSFLHSEQKKRKLILPKRLKSSTSFANIQENSN
modifications: N-linked carbohydrate at asparagines 93, 128, 163, 184, 194, 263 and 274; five disulfide bonds in the luminal domain
notes: OSTM1, human, single-pass transmembrane protein; synthesized gene (SynBio); C-terminal cytoplasmic domain disordered in the structure; Printed residue numbers appear to count on the precursor; also called hsOSTM1; beta-subunit of CLC-7; not shown: mVenus, C-terminal, cleaved
B2: human CLC-7 (natural protein, UniProt P51798 1-805, looked up)
chain: MANVSKKVSWSGRDRDDEEAAPLLRRTARPGGGTPLLNGAGPGAARQSPRSALFRVGHMSSVELDDELLDPDMDPPHPFPKEIPHNEKLLSLKYESLDYDNSENQLFLEEERRINHTAFRTVEIKRWVICALIGILTGLVACFIDIVVENLAGLKYRVIKGNIDKFTEKGGLSFSLLLWATLNAAFVLVGSVIVAFIEPVAAGSGIPQIKCFLNGVKIPHVVRLKTLVIKVSGVILSVVGGLAVGKEGPMIHSGSVIAAGISQGRSTSLKRDFKIFEYFRRDTEKRDFVSAGAAAGVSAAFGAPVGGVLFSLEEGASFWNQFLTWRIFFASMISTFTLNFVLSIYHGNMWDLSSPGLINFGRFDSEKMAYTIHEIPVFIAMGVVGGVLGAVFNALNYWLTMFRIRYIHRPCLQVIEAVLVAAVTATVAFVLIYSSRDCQPLQGGSMSYPLQLFCADGEYNSMAAAFFNTPEKSVVSLFHDPPGSYNPLTLGLFTLVYFFLACWTYGLTVSAGVFIPSLLIGAAWGRLFGISLSYLTGAAIWADPGKYALMGAAAQLGGIVRMTLSLTVIMMEATSNVTYGFPIMLVLMTAKIVGDVFIEGLYDMHIQLQSVPFLHWEAPVTSHSLTAREVMSTPVTCLRRREKVGVIVDVLSDTASNHNGFPVVEHADDTQPARLQGLILRSQLIVLLKHKVFVERSNLGLVQRRLRLKDFRDAYPRFPPIQSIHVSQDERECTMDLSEFMNPSPYTVPQEASLPRVFKLFRALGLRHLVVVDNRNQVVGLVTRKDLARYRLGKRGLEELSLAQT
notes: CLC-7 (CLCN7) chloride-proton exchanger, human; synthesized gene (SynBio); called full-length in the results for the human CLC-7 expressed alone; the methods describe only the mCerulean construct used for the complex with OSTM1; also called hsCLC-7; hsCLCN7; not shown: mCerulean, C-terminal, cleaved

Tests used:
[1] = target: chicken CLC-7 (Gallus gallus (chicken)); test: cryo-EM structure; purified ggCLC-7 at 2 mg/ml in LMNG, 50 mM Tris-HCl pH 8, 150 mM KCl, 2 mM DTT; C2 symmetry imposed
human CLC-7 = target: B2; test: cryo-EM structure; purified co-expressed hsCLC-7/OSTM1 complex at 2 mg/ml, supplemented with 1 mM ATP and 0.1% LMNG; 50 mM Tris-HCl pH 8, 150 mM KCl, 2 mM DTT; C2 symmetry imposed, local refinements; details: both partners purified
[2] = target: the molecule itself; test: as above

| stoichiometry N [1] | binding result (human CLC-7) | Molecule | stoichiometry N [2] |
| --- | --- | --- | --- |
| 2 | – | chicken CLC-7 (natural protein) | – |
| – | binds | B1 | 2 |
| – | – | B2 | 2 |
